Data taken from the RNAGym collection of RNA variant scans (doi:10.1073/pnas.2313332121).

B1: TPR t1 (parent)
chain: GACCAAUCUGCCCUCAGAGCUCGAGAACAUCUUCGGAUGCAGAGGAGGCAGGCUUCGGUGGCGCGAUAGCGCCAACGUCCUCAACCUCCAAUGCAUCCCACCACAUGAUGAUGCCUGAAGAGCCUUGGUUUUUUG

Variants of: B1
Assay: polymerase ribozyme fitness, log enrichment relative to wild type (log ratio); higher = more active; in vitro selection for triplet polymerase activity
Method in brief: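 Mutant libraries for each subunit of a heterodimeric triplet polymerase ribozyme were made by PCR and then transcribed. Each library underwent one round of in vitro selection in triplicate: annealing with a biotinylated primer, the partner subunit and triplets, frozen incubation at −7 °C, gel excision of extended constructs, streptavidin-bead capture and RT-PCR. Input and output libraries were Illumina-sequenced, and only genotypes with ≥10 input reads and ≥1 read per output were kept. Fitness is the logarithm, base 2, of genotype enrichment over wild-type enrichment, computed from inverse-variance-weighted replicate averages.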

Variant | polymerase ribozyme fitness (log ratio)
G23A G71A | -5.75
A27G A50U | -2.6
A24G A84U | -1.7
A24U C56A G60A C123U U125A | -5.92
A26G C28G | -2.83
G25U C72U G110U C114U | -6.32
A26G A74C C88A C115U | -2.88
C22U U129A | -5.14
A27G G60U | -1.6
A27G G60C | -2.15
G23A G117U | -7.76
G25U G36U | -6.39
A26U C40U C64U | -3.97
A26U U129G | -3.51
A26G G113U | -4.2
A24G C72U | -1.6
A27U A46G | -2.59
A27C G48A C86G U92A A103G A105C U109G | -7.14
G23C A121G | -6.91
G25A A26G A46U G63A A118C G120A | -5.5
G23A C123A | -4.67

Variant | polymerase ribozyme fitness (log ratio)
C22U G48U G71U C94A | -6.57
A24U G39A C72A U112C | -7.11
A24G G117C G128A | -6.86
G23U C73G | -4.76
C22U G48C C53G C56A | -4.86
A26G G77U | -2.79
A26U C53U G69C C115G G117C U133G | -6.29
A27U A50C | -3.87
A26U C72A U129A | -4.07
G23U G51U C56A G63C G69C C114A A121U | -5.92
A26U G60U U78C | -3.09
A24G U87G | -2.03
A26C G60C | -6.06
A24C C124A | -5.24
A24G U112G | -1.29
G23C C70A G113U G117C | -6.09
A24U G61U C88A G117C | -6.74
A24C G39A U55C C104A C124G | -5.87
A27G U59C A68G C99U U112A | -5.37
G23C A46U C86A A119U G120A | -6.31
A26C U106A G122A | -2.97

Variant | polymerase ribozyme fitness (log ratio)
G25C A83C C94G A103U C124G U125C | -8.57
A27U C28G G63U G110C | -5.36
A26U A41C A46U C101U | -6.28
C22U C101A | -4.34
A27G U125G | -2.34
A24U G61U | -6.34
A24U G61U A91G G120U C124U G135A | -6.15
A27G A46U C102U C115A G120A | -7.01
A24G G57A U78C C101A | -4.85
G25U C64G C88A G110A G120C C123U | -6.08
A26G C49A U55C C62U G63A A83C U109A G113A | -6.66
G25C A29G C64A C79G A90C G117U A119G | -7.04
A27C U32C G39A C98G | -7.35
A24C G63C C79G A90C C124A | -7.24
A26C A43G G63C G69A C115G | -4.47
A26G A37U C53G | -3.12
A24U G39U G60U C115A U129C | -6.65
G25C A46G C70U C85G | -6.39
A26G G39A C49U C64U | -3.32
A27C G39A G61A C94A U112G | -4.85
A24G U55G C64U | -1.64

Variant | polymerase ribozyme fitness (log ratio)
A26G A29G A66U C72G U78A A118U | -3.89
A26U C53U C56G A100C | -5.42
A26G C28U A121G | -0.559
G23C G69U | -5.11
C22U A46C G61A | -4.91
A26G C72A C86G A111U G122U | -3.76
C22G U87A G113U | -6.04
A26U U87G | -2.62
A27C G61U | -3.27
A27G A50U G61A A83G U126G G128C | -5.38
C22U C56A | -5.17
A26G U112A | -0.933
A27G A50G U81A | -1.56
A26G G69U C70A G113U | -4.8
A26G A29G C80G C86U A119G | -3.74
C22U G45U C72A | -4.82
A24G G39C U92G C104U | -5.73
A27U A84G | -4.18
A27U A84U | -3.79
A26U G52U C94G C114A | -7.17
